Measurements reported in PMC9121386.

Biological target: 80S ribosome (purified 80S ribosomal fraction from H1299 cells) (human (endogenous in H1299))

Chain of fragile histidine triad (Fhit), wild type (P49789 whole entry): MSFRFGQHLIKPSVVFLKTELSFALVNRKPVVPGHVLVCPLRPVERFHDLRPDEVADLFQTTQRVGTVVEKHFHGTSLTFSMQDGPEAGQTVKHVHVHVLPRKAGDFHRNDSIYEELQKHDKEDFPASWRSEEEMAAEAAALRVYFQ

In the case of “fragile histidine triad (Fhit), wild type (from UniProt P49789 1-147) (enzyme)”, the turnover of Ap3A by Fhit (RP-HPLC) with 80S ribosomes pre-incubated with RNaseA is reported as < 5%.
